This passage reports Tm results from the array DNA melting data of Ke et al..

The series can be described thus: melting temperature; melt of duplexes. The conditions noted are these: sodium 0.0675 M; strand 1 µM.
As usually defined, the Tm is the temperature at the midpoint of the melting transition. With “CGACGTGCACCATGTGCTG+CAGCACATGTGGCACGTCG ((((((((..(((((((((+)))))))))..))))))))”, the Tm was determined as 53.4 °C.

Turning to “CGACGTGCGAAATGTGCTG+CAGCACATAGCGCACGTCG (((((((((..((((((((+))))))))..)))))))))”, the Tm amounted to 55.4 °C.

For the substance “CGACGTGCCTGATGTGCTG+CAGCACATCAGGCACGTCG (((((((((((((((((((+)))))))))))))))))))”, the Tm was found to be 65.9 °C.

“CGACGTGCCTAATGTGCTG+CAGCACATGGTGCACGTCG ((((((((...((((((((+))))))))...))))))))”: the Tm was 48.3 °C.

Take “CGACGTGCCCCATGTGCTG+CAGCACATTCAGCACGTCG ((((((((...((((((((+))))))))...))))))))”: the Tm is 47.7 °C.

Consider “CGACGTGCTGCATGTGCTG+CAGCACATCGAGCACGTCG (((((((((..((((((((+))))))))..)))))))))”, for which the melting temperature (Tm) was found to be 52.5 °C.

Turning to “CGACGTGCCTGATGTGCTG+CAGCACATTATGCACGTCG ((((((((.(.((((((((+)))))))).).))))))))”, the Tm was found to be 50.2 °C.

For “CGACGTGCAGTATGTGCTG+CAGCACATGGAGCACGTCG ((((((((...((((((((+))))))))...))))))))”, the midpoint of thermal melting (Tm) stood at 50.6 °C.

Regarding “CGACGTGCCACATGTGCTG+CAGCACATTCCGCACGTCG ((((((((...((((((((+))))))))...))))))))”, the Tm is 47.1 °C.

Consider “CGACGTGCTAAATGTGCTG+CAGCACATCAGGCACGTCG ((((((((...((((((((+))))))))...))))))))”, for which the Tm is 50.9 °C.

Consider “CGACGTGCGGGATGTGCTG+CAGCACATAGTGCACGTCG ((((((((...((((((((+))))))))...))))))))”, for which the Tm amounted to 47.9 °C.

On to “CGACGTGCTAAATGTGCTG+CAGCACATCGAGCACGTCG (((((((((..((((((((+))))))))..)))))))))”, for which the Tm was 51.8 °C.

Turning to “CGACGTGCGTAATGTGCTG+CAGCACATATAGCACGTCG ((((((((...((((((((+))))))))...))))))))”, the Tm came out at 54.5 °C.

As for “CGACGTGCCGTATGTGCTG+CAGCACATAAAGCACGTCG ((((((((..(((((((((+)))))))))..))))))))”, the Tm is 51.5 °C.

As to “CGACGTGCGCGATGTGCTG+CAGCACATCTTGCACGTCG ((((((((..(((((((((+)))))))))..))))))))”, the Tm turned out to be 53.9 °C.

Consider “CGACGTGCCAAATGTGCTG+CAGCACATGATGCACGTCG ((((((((...((((((((+))))))))...))))))))”, for which the midpoint of thermal melting (Tm) was 50.3 °C.

As for “CGACGTGCACTATGTGCTG+CAGCACATAGCGCACGTCG ((((((((.((((((((((+)))))))))).))))))))”, the Tm was 54.8 °C.

Take “CGACGTGCCTGATGTGCTG+CAGCACATCCCGCACGTCG ((((((((..(((((((((+)))))))))..))))))))”: the Tm is 53 °C.

Take “CGACGTGCAGAATGTGCTG+CAGCACATAATGCACGTCG (((((((((..((((((((+))))))))..)))))))))”: the Tm is 54.2 °C.

For “CGACGTGCACTATGTGCTG+CAGCACATTTAGCACGTCG ((((((((...((((((((+))))))))...))))))))”, the Tm turned out to be 42.7 °C.

Consider “CGACGTGCTTAATGTGCTG+CAGCACATATGGCACGTCG ((((((((...((((((((+))))))))...))))))))”, for which the Tm was found to be 51.4 °C.

On to “CGACGTGCTAGATGTGCTG+CAGCACATGTTGCACGTCG ((((((((.(.((((((((+)))))))).).))))))))”, for which the Tm turned out to be 52.2 °C.

With “CGACGTGCAAGATGTGCTG+CAGCACATGGCGCACGTCG ((((((((...((((((((+))))))))...))))))))”, the Tm was determined as 51.3 °C.

For “CGACGTGCACCATGTGCTG+CAGCACATAGGGCACGTCG ((((((((.(.((((((((+)))))))).).))))))))”, the Tm worked out at 51.5 °C.

In the case of “CGACGTGCAAAATGTGCTG+CAGCACATATTGCACGTCG ((((((((((.((((((((+)))))))).))))))))))”, the Tm was found to be 54.7 °C.

Turning to “CGACGTGCTAAATGTGCTG+CAGCACATGCTGCACGTCG ((((((((...((((((((+))))))))...))))))))”, the Tm stood at 50.1 °C.

For the substance “CGACGTGCGATATGTGCTG+CAGCACATATAGCACGTCG ((((((((.((((((((((+)))))))))).))))))))”, the Tm was 57.5 °C.

Regarding “CGACGTGCTTGATGTGCTG+CAGCACATGAAGCACGTCG ((((((((((.((((((((+)))))))).))))))))))”, the Tm was 56.6 °C.

Consider “CGACGTGCGAAATGTGCTG+CAGCACATCTGGCACGTCG ((((((((.(.((((((((+)))))))).).))))))))”, for which the Tm is 50.6 °C.

Turning to “CGACGTGCCAGATGTGCTG+CAGCACATGATGCACGTCG ((((((((...((((((((+))))))))...))))))))”, the Tm worked out at 49.4 °C.

In the case of “CGACGTGCGGTATGTGCTG+CAGCACATTGCGCACGTCG (((((((((..((((((((+))))))))..)))))))))”, the Tm turned out to be 55.4 °C.

On to “CGACGTGCCAGATGTGCTG+CAGCACATCTGGCACGTCG (((((((((((((((((((+)))))))))))))))))))”, for which the Tm turned out to be 66.5 °C.

Regarding “CGACGTGCTGGATGTGCTG+CAGCACATGTTGCACGTCG ((((((((...((((((((+))))))))...))))))))”, the Tm was 51.4 °C.

For “CGACGTGCCATATGTGCTG+CAGCACATTCAGCACGTCG ((((((((...((((((((+))))))))...))))))))”, the Tm worked out at 50.2 °C.

Take “CGACGTGCCATATGTGCTG+CAGCACATAACGCACGTCG ((((((((..(((((((((+)))))))))..))))))))”: the Tm amounted to 49.1 °C.

Regarding “CGACGTGCCCAATGTGCTG+CAGCACATGCCGCACGTCG ((((((((...((((((((+))))))))...))))))))”, the Tm was 48.9 °C.

On to “CGACGTGCTTCATGTGCTG+CAGCACATTACGCACGTCG ((((((((.(.((((((((+)))))))).).))))))))”, for which the Tm was found to be 47.8 °C.

With “CGACGTGCGGCATGTGCTG+CAGCACATACCGCACGTCG ((((((((((.((((((((+)))))))).))))))))))”, the Tm turned out to be 60 °C.

Consider “CGACGTGCAGGATGTGCTG+CAGCACATGAAGCACGTCG ((((((((...((((((((+))))))))...))))))))”, for which the Tm is 50.3 °C.

Turning to “CGACGTGCGTGATGTGCTG+CAGCACATCGCGCACGTCG (((((((((.(((((((((+))))))))).)))))))))”, the Tm stood at 63.6 °C.

On to “CGACGTGCTCAATGTGCTG+CAGCACATGCCGCACGTCG ((((((((...((((((((+))))))))...))))))))”, for which the Tm turned out to be 49 °C.

On to “CGACGTGCATAATGTGCTG+CAGCACATTACGCACGTCG ((((((((.((((((((((+)))))))))).))))))))”, for which the Tm was determined as 54.4 °C.

“CGACGTGCGACATGTGCTG+CAGCACATCCAGCACGTCG ((((((((...((((((((+))))))))...))))))))”: the Tm turned out to be 50.4 °C.

For the substance “CGACGTGCAGTATGTGCTG+CAGCACATGACGCACGTCG ((((((((...((((((((+))))))))...))))))))”, the Tm came out at 49.1 °C.

Consider “CGACGTGCCACATGTGCTG+CAGCACATAGGGCACGTCG (((((((((..((((((((+))))))))..)))))))))”, for which the Tm is 54.7 °C.

Consider “CGACGTGCCCGATGTGCTG+CAGCACATATGGCACGTCG (((((((((..((((((((+))))))))..)))))))))”, for which the Tm came to 54 °C.

For “CGACGTGCGTTATGTGCTG+CAGCACATCCTGCACGTCG ((((((((...((((((((+))))))))...))))))))”, the Tm stood at 49.2 °C.

For “CGACGTGCGTCATGTGCTG+CAGCACATACTGCACGTCG ((((((((...((((((((+))))))))...))))))))”, the Tm is 50.9 °C.

For “CGACGTGCAGCATGTGCTG+CAGCACATCCGGCACGTCG ((((((((.(.((((((((+)))))))).).))))))))”, the Tm amounted to 49 °C.

For “CGACGTGCGACATGTGCTG+CAGCACATAAAGCACGTCG ((((((((...((((((((+))))))))...))))))))”, the Tm was 55.2 °C.

In the case of “CGACGTGCGCGATGTGCTG+CAGCACATGAAGCACGTCG ((((((((...((((((((+))))))))...))))))))”, the melting temperature (Tm) was found to be 54.4 °C.

As to “CGACGTGCGGCATGTGCTG+CAGCACATGGCGCACGTCG (((((((((.(((((((((+))))))))).)))))))))”, the Tm was 65.9 °C.

Consider “CGACGTGCTCTATGTGCTG+CAGCACATACCGCACGTCG ((((((((..(((((((((+)))))))))..))))))))”, for which the Tm came to 48.5 °C.

Turning to “CGACGTGCGTTATGTGCTG+CAGCACATCGTGCACGTCG ((((((((...((((((((+))))))))...))))))))”, the Tm was determined as 44 °C.

As to “CGACGTGCAAAATGTGCTG+CAGCACATAGGGCACGTCG ((((((((...((((((((+))))))))...))))))))”, the Tm is 48.7 °C.

Turning to “CGACGTGCGCGATGTGCTG+CAGCACATCGTGCACGTCG ((((((((.((((((((((+)))))))))).))))))))”, the Tm was determined as 62.4 °C.

Regarding “CGACGTGCGCAATGTGCTG+CAGCACATTATGCACGTCG ((((((((..(((((((((+)))))))))..))))))))”, the Tm was found to be 52.6 °C.

In the case of “CGACGTGCGCGATGTGCTG+CAGCACATAACGCACGTCG (((((((((..((((((((+))))))))..)))))))))”, the Tm was 54.4 °C.

On to “CGACGTGCGTAATGTGCTG+CAGCACATCGGGCACGTCG ((((((((...((((((((+))))))))...))))))))”, for which the Tm is 49.4 °C.

On to “CGACGTGCGCCATGTGCTG+CAGCACATGATGCACGTCG ((((((((..(((((((((+)))))))))..))))))))”, for which the Tm was 54.9 °C.

For “CGACGTGCTTGATGTGCTG+CAGCACATGGGGCACGTCG ((((((((...((((((((+))))))))...))))))))”, the Tm was 50.7 °C.

In the case of “CGACGTGCTTCATGTGCTG+CAGCACATGTCGCACGTCG ((((((((..(((((((((+)))))))))..))))))))”, the Tm stood at 52.2 °C.

As to “CGACGTGCTCAATGTGCTG+CAGCACATGGCGCACGTCG ((((((((.(.((((((((+)))))))).).))))))))”, the Tm was found to be 51.8 °C.

“CGACGTGCCAGATGTGCTG+CAGCACATGCCGCACGTCG ((((((((...((((((((+))))))))...))))))))”: the Tm worked out at 49.5 °C.

Consider “CGACGTGCGACATGTGCTG+CAGCACATTATGCACGTCG ((((((((...((((((((+))))))))...))))))))”, for which the Tm came out at 50.1 °C.

“CGACGTGCACAATGTGCTG+CAGCACATTCGGCACGTCG ((((((((..(((((((((+)))))))))..))))))))”: the Tm was determined as 49.7 °C.
